Data on one substance can be found in doi:10.1101/2025.10.29.685377.

Where two headings read alike, the source gives them in different places.

Assay [1] concerns the target Alka channel (Drosophila melanogaster alkaline taste receptor Alka) (Drosophila melanogaster). Nature of the assay: cryo-EM structure.
For assay [2] the target is unchanged. Nature of the assay: cryo-EM structure. The source holds these as a separate data set.

The stoichiometry N is a count of units in the complex or per binding partner.

In the case of “Alka channel (Drosophila melanogaster alkaline taste receptor Alka)”, the stoichiometry N in assay [1] and in assay [2] was 5 throughout.
